Results from patent US20190185537A1 (AstraZeneca / MedImmune, published 2019).
Numbered stars: 1 amine (or outer) side, 2 acyl side, 3 side chain; on linkers, the order of the positions; unused ones are H or OH. Side chains are listed from the residue outwards. Ends that are not written are not given here. * marks the point of attachment. γGlu = O=C(O)[C@H](CCC(=O)[*:2])N[*:1]; Palmitoyl = CCCCCCCCCCCCCCCC(=O)*

Tests used:
Experiment in all cases: cell-based or functional assay
human GLP-1 receptor = human GLP-1 receptor (human, UniProt P43220 24-463)
human glucagon receptor = human glucagon receptor (human, UniProt P47871 26-477)
[1] = molecular target: T1, human glucose-dependent insulinotropic peptide (gastric inhibitory polypeptide) receptor (human) (UniProt P48546)
T1 sequence (looked up): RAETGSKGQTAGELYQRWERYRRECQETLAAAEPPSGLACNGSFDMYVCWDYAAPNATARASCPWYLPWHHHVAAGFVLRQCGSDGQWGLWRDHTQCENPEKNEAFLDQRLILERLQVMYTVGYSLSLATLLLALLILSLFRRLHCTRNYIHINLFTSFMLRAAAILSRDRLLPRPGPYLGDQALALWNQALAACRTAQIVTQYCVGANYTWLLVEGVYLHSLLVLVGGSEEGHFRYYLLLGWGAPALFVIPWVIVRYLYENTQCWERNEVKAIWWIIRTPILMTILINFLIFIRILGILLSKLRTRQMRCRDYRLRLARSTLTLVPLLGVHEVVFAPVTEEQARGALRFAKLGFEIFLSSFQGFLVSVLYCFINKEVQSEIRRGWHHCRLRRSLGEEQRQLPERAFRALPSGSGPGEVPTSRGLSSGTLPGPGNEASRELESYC

Sequence of human GLP-1 receptor (P43220 24-463): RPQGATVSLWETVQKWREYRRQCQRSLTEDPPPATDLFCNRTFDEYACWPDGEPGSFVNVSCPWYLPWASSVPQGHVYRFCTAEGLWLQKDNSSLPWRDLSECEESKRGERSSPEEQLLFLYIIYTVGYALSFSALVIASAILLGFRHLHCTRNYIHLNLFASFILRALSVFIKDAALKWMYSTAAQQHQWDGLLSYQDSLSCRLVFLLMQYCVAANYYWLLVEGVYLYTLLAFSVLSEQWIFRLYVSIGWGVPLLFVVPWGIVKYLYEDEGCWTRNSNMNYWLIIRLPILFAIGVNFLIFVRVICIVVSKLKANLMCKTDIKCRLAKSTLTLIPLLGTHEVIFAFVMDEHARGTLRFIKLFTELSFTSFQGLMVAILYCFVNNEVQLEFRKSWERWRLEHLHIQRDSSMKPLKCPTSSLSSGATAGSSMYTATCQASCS
Sequence of human glucagon receptor (P47871 26-477): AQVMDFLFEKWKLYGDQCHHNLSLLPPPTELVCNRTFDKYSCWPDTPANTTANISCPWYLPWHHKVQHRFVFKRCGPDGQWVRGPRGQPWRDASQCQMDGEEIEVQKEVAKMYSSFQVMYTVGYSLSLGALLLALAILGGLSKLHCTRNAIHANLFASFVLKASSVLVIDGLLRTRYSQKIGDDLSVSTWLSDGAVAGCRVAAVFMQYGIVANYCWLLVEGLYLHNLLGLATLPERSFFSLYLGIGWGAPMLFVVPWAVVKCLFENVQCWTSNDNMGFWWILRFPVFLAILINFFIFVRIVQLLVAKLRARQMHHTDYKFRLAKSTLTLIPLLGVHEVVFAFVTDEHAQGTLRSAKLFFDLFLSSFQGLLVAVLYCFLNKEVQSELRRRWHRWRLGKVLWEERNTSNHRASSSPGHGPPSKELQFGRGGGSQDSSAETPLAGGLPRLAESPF

B1: g381 (peptide)
peptide: HSEGTFTSDYSKYLDSK([γGlu-Palmitoyl])RAQDFVQWLVAGG-NH2
modifications: N-terminus assumed
SMILES: CCCCCCCCCCCCCCCC(=O)N[C@@H](CCC(=O)NCCCC[C@H](NC(=O)[C@H](CO)NC(=O)[C@H](CC(=O)O)NC(=O)[C@H](CC(C)C)NC(=O)[C@H](Cc1ccc(O)cc1)NC(=O)[C@H](CCCCN)NC(=O)[C@H](CO)NC(=O)[C@H](Cc1ccc(O)cc1)NC(=O)[C@H](CC(=O)O)NC(=O)[C@H](CO)NC(=O)[C@@H](NC(=O)[C@H](Cc1ccccc1)NC(=O)[C@@H](NC(=O)CNC(=O)[C@H](CCC(=O)O)NC(=O)[C@H](CO)NC(=O)[C@@H](N)Cc1c[nH]cn1)[C@@H](C)O)[C@@H](C)O)C(=O)N[C@@H](CCCNC(=N)N)C(=O)N[C@@H](C)C(=O)N[C@@H](CCC(N)=O)C(=O)N[C@@H](CC(=O)O)C(=O)N[C@@H](Cc1ccccc1)C(=O)N[C@H](C(=O)N[C@@H](CCC(N)=O)C(=O)N[C@@H](Cc1c[nH]c2ccccc12)C(=O)N[C@@H](CC(C)C)C(=O)N[C@H](C(=O)N[C@@H](C)C(=O)NCC(=O)NCC(N)=O)C(C)C)C(C)C)C(=O)O
Human GLP-1 receptor
  cAMP EC50 (assay 1): 0.0908 nM
Human glucagon receptor
  cAMP EC50 (assay 1): 1.93 nM
[1]
  cAMP EC50 (assay 1): 545 nM

## HXQGTFTSDYSKYLDSKRAQDFVQWLVAGG (Aib at 2 (written X); K(gE-palm) at 17; C-terminal amide) [g384]
Human GLP-1 receptor
  cAMP EC50 (assay 1): 0.0272 nM
Human glucagon receptor
  cAMP EC50 (assay 1): 0.0429 nM
[1]
  cAMP EC50 (assay 1): 17 nM

B2: g679 (peptide)
peptide: HGQGTFTSDYSKYLDSK([γGlu-Palmitoyl])RAQDFVEWLVAGG-NH2
modifications: N-terminus assumed
SMILES: CCCCCCCCCCCCCCCC(=O)N[C@@H](CCC(=O)NCCCC[C@H](NC(=O)[C@H](CO)NC(=O)[C@H](CC(=O)O)NC(=O)[C@H](CC(C)C)NC(=O)[C@H](Cc1ccc(O)cc1)NC(=O)[C@H](CCCCN)NC(=O)[C@H](CO)NC(=O)[C@H](Cc1ccc(O)cc1)NC(=O)[C@H](CC(=O)O)NC(=O)[C@H](CO)NC(=O)[C@@H](NC(=O)[C@H](Cc1ccccc1)NC(=O)[C@@H](NC(=O)CNC(=O)[C@H](CCC(N)=O)NC(=O)CNC(=O)[C@@H](N)Cc1c[nH]cn1)[C@@H](C)O)[C@@H](C)O)C(=O)N[C@@H](CCCNC(=N)N)C(=O)N[C@@H](C)C(=O)N[C@@H](CCC(N)=O)C(=O)N[C@@H](CC(=O)O)C(=O)N[C@@H](Cc1ccccc1)C(=O)N[C@H](C(=O)N[C@@H](CCC(=O)O)C(=O)N[C@@H](Cc1c[nH]c2ccccc12)C(=O)N[C@@H](CC(C)C)C(=O)N[C@H](C(=O)N[C@@H](C)C(=O)NCC(=O)NCC(N)=O)C(C)C)C(C)C)C(=O)O
Human GLP-1 receptor
  cAMP EC50 (assay 1): 0.135 nM
Human glucagon receptor
  cAMP EC50 (assay 1): 0.189 nM
[1]
  cAMP EC50 (assay 1): 117 nM

B3: g335 (peptide)
peptide: HSQGTFTSDYSKYLDSK([γGlu-Palmitoyl])RAQDFVQWLVAGG-NH2
modifications: N-terminus assumed
SMILES: CCCCCCCCCCCCCCCC(=O)N[C@@H](CCC(=O)NCCCC[C@H](NC(=O)[C@H](CO)NC(=O)[C@H](CC(=O)O)NC(=O)[C@H](CC(C)C)NC(=O)[C@H](Cc1ccc(O)cc1)NC(=O)[C@H](CCCCN)NC(=O)[C@H](CO)NC(=O)[C@H](Cc1ccc(O)cc1)NC(=O)[C@H](CC(=O)O)NC(=O)[C@H](CO)NC(=O)[C@@H](NC(=O)[C@H](Cc1ccccc1)NC(=O)[C@@H](NC(=O)CNC(=O)[C@H](CCC(N)=O)NC(=O)[C@H](CO)NC(=O)[C@@H](N)Cc1c[nH]cn1)[C@@H](C)O)[C@@H](C)O)C(=O)N[C@@H](CCCNC(=N)N)C(=O)N[C@@H](C)C(=O)N[C@@H](CCC(N)=O)C(=O)N[C@@H](CC(=O)O)C(=O)N[C@@H](Cc1ccccc1)C(=O)N[C@H](C(=O)N[C@@H](CCC(N)=O)C(=O)N[C@@H](Cc1c[nH]c2ccccc12)C(=O)N[C@@H](CC(C)C)C(=O)N[C@H](C(=O)N[C@@H](C)C(=O)NCC(=O)NCC(N)=O)C(C)C)C(C)C)C(=O)O
Human GLP-1 receptor
  cAMP EC50 (assay 1): 0.0733 nM
[1]
  cAMP EC50 (assay 1): 582 nM

B4: g336 (peptide)
peptide: HSQGTFTSDYSKYLDSK([γGlu-γGlu-Palmitoyl])RAQDFVQWLVAGG-NH2
modifications: N-terminus assumed
SMILES: CCCCCCCCCCCCCCCC(=O)N[C@@H](CCC(=O)N[C@@H](CCC(=O)NCCCC[C@H](NC(=O)[C@H](CO)NC(=O)[C@H](CC(=O)O)NC(=O)[C@H](CC(C)C)NC(=O)[C@H](Cc1ccc(O)cc1)NC(=O)[C@H](CCCCN)NC(=O)[C@H](CO)NC(=O)[C@H](Cc1ccc(O)cc1)NC(=O)[C@H](CC(=O)O)NC(=O)[C@H](CO)NC(=O)[C@@H](NC(=O)[C@H](Cc1ccccc1)NC(=O)[C@@H](NC(=O)CNC(=O)[C@H](CCC(N)=O)NC(=O)[C@H](CO)NC(=O)[C@@H](N)Cc1c[nH]cn1)[C@@H](C)O)[C@@H](C)O)C(=O)N[C@@H](CCCNC(=N)N)C(=O)N[C@@H](C)C(=O)N[C@@H](CCC(N)=O)C(=O)N[C@@H](CC(=O)O)C(=O)N[C@@H](Cc1ccccc1)C(=O)N[C@H](C(=O)N[C@@H](CCC(N)=O)C(=O)N[C@@H](Cc1c[nH]c2ccccc12)C(=O)N[C@@H](CC(C)C)C(=O)N[C@H](C(=O)N[C@@H](C)C(=O)NCC(=O)NCC(N)=O)C(C)C)C(C)C)C(=O)O)C(=O)O
Human GLP-1 receptor
  cAMP EC50 (assay 1): 0.0366 nM
Human glucagon receptor
  cAMP EC50 (assay 1): 0.00177 nM
[1]
  cAMP EC50 (assay 1): 19.6 nM

B5: g702 (peptide)
peptide: HSQGTFTSDYSK([γGlu-Palmitoyl])YLDSERAQDFVQWLVAGG-NH2
modifications: N-terminus assumed
SMILES: CCCCCCCCCCCCCCCC(=O)N[C@@H](CCC(=O)NCCCC[C@H](NC(=O)[C@H](CO)NC(=O)[C@H](Cc1ccc(O)cc1)NC(=O)[C@H](CC(=O)O)NC(=O)[C@H](CO)NC(=O)[C@@H](NC(=O)[C@H](Cc1ccccc1)NC(=O)[C@@H](NC(=O)CNC(=O)[C@H](CCC(N)=O)NC(=O)[C@H](CO)NC(=O)[C@@H](N)Cc1c[nH]cn1)[C@@H](C)O)[C@@H](C)O)C(=O)N[C@@H](Cc1ccc(O)cc1)C(=O)N[C@@H](CC(C)C)C(=O)N[C@@H](CC(=O)O)C(=O)N[C@@H](CO)C(=O)N[C@@H](CCC(=O)O)C(=O)N[C@@H](CCCNC(=N)N)C(=O)N[C@@H](C)C(=O)N[C@@H](CCC(N)=O)C(=O)N[C@@H](CC(=O)O)C(=O)N[C@@H](Cc1ccccc1)C(=O)N[C@H](C(=O)N[C@@H](CCC(N)=O)C(=O)N[C@@H](Cc1c[nH]c2ccccc12)C(=O)N[C@@H](CC(C)C)C(=O)N[C@H](C(=O)N[C@@H](C)C(=O)NCC(=O)NCC(N)=O)C(C)C)C(C)C)C(=O)O
Human GLP-1 receptor
  cAMP EC50 (assay 1): 3.35 nM
Human glucagon receptor
  cAMP EC50 (assay 1): 1.49 nM

B6: g678 (peptide)
peptide: HGQGTFTSDYSKYLDSK([γGlu-Palmitoyl])RAEDFVQWLVAGG-NH2
modifications: N-terminus assumed
SMILES: CCCCCCCCCCCCCCCC(=O)N[C@@H](CCC(=O)NCCCC[C@H](NC(=O)[C@H](CO)NC(=O)[C@H](CC(=O)O)NC(=O)[C@H](CC(C)C)NC(=O)[C@H](Cc1ccc(O)cc1)NC(=O)[C@H](CCCCN)NC(=O)[C@H](CO)NC(=O)[C@H](Cc1ccc(O)cc1)NC(=O)[C@H](CC(=O)O)NC(=O)[C@H](CO)NC(=O)[C@@H](NC(=O)[C@H](Cc1ccccc1)NC(=O)[C@@H](NC(=O)CNC(=O)[C@H](CCC(N)=O)NC(=O)CNC(=O)[C@@H](N)Cc1c[nH]cn1)[C@@H](C)O)[C@@H](C)O)C(=O)N[C@@H](CCCNC(=N)N)C(=O)N[C@@H](C)C(=O)N[C@@H](CCC(=O)O)C(=O)N[C@@H](CC(=O)O)C(=O)N[C@@H](Cc1ccccc1)C(=O)N[C@H](C(=O)N[C@@H](CCC(N)=O)C(=O)N[C@@H](Cc1c[nH]c2ccccc12)C(=O)N[C@@H](CC(C)C)C(=O)N[C@H](C(=O)N[C@@H](C)C(=O)NCC(=O)NCC(N)=O)C(C)C)C(C)C)C(=O)O
Human GLP-1 receptor
  cAMP EC50 (assay 1): 0.106 nM
Human glucagon receptor
  cAMP EC50 (assay 1): 4.52 nM
[1]
  cAMP EC50 (assay 1): 123 nM

B7: g670 (peptide)
peptide: HSQGTFTSDYSKYK([γGlu-Palmitoyl])DSRSAQDFVQWLVAGG-NH2
modifications: N-terminus assumed
SMILES: CCCCCCCCCCCCCCCC(=O)N[C@@H](CCC(=O)NCCCC[C@H](NC(=O)[C@H](Cc1ccc(O)cc1)NC(=O)[C@H](CCCCN)NC(=O)[C@H](CO)NC(=O)[C@H](Cc1ccc(O)cc1)NC(=O)[C@H](CC(=O)O)NC(=O)[C@H](CO)NC(=O)[C@@H](NC(=O)[C@H](Cc1ccccc1)NC(=O)[C@@H](NC(=O)CNC(=O)[C@H](CCC(N)=O)NC(=O)[C@H](CO)NC(=O)[C@@H](N)Cc1c[nH]cn1)[C@@H](C)O)[C@@H](C)O)C(=O)N[C@@H](CC(=O)O)C(=O)N[C@@H](CO)C(=O)N[C@@H](CCCNC(=N)N)C(=O)N[C@@H](CO)C(=O)N[C@@H](C)C(=O)N[C@@H](CCC(N)=O)C(=O)N[C@@H](CC(=O)O)C(=O)N[C@@H](Cc1ccccc1)C(=O)N[C@H](C(=O)N[C@@H](CCC(N)=O)C(=O)N[C@@H](Cc1c[nH]c2ccccc12)C(=O)N[C@@H](CC(C)C)C(=O)N[C@H](C(=O)N[C@@H](C)C(=O)NCC(=O)NCC(N)=O)C(C)C)C(C)C)C(=O)O
Human GLP-1 receptor
  cAMP EC50 (assay 1): 0.0203 nM
Human glucagon receptor
  cAMP EC50 (assay 1): 0.008 nM
[1]
  cAMP EC50 (assay 1): 14.9 nM
